Laboratory results reported in patent publication US20150266977A1 (AbbVie / Abbott, published 2015).

T1: recombinant human sclerostin (human, UniProt Q9BQB4 24-213)
T1 construct: biotinylated in the ELISAs; also called hu sclerostin; hu scl
T1 sequence: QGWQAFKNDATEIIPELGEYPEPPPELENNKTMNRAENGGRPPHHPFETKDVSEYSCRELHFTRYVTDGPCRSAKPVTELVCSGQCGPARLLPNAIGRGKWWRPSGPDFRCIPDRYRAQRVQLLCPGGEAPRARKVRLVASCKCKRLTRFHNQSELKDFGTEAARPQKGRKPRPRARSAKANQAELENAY

T2: recombinant rat sclerostin (rat, UniProt Q99P67 24-213, limits assumed)
T2 sequence (looked up): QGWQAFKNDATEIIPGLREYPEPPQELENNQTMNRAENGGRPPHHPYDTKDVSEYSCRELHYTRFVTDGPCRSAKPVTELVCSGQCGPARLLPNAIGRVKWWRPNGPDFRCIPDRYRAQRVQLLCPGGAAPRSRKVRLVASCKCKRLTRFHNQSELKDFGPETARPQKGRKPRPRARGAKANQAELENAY

T3: recombinant mouse sclerostin (mouse, UniProt Q99P68 24-211)
T3 construct: also called ms sclerostin; murine sclerostin
T3 sequence (looked up): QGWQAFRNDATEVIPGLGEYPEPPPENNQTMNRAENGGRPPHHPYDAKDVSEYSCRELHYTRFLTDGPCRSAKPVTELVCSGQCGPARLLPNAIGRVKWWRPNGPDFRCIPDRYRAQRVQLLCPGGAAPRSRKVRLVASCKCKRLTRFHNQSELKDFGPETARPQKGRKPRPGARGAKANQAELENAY


Columns and labels:
Assay in all cases: SPR
[1] = biological target: T1, recombinant human sclerostin
Experimental: (§1) Approximately 10,000 RU (or 3000 RU when CM3 chip was used) of goat anti-mouse or anti-human IgG (Fcγ) fragment specific polyclonal antibody (Pierce Biotechnology Inc, Rockford, Ill.) diluted in 10 mM sodium acetate (pH 4.5) was directly immobilized across a CM5 (or CM3) research grade biosensor chip using a standard amine coupling kit according to manufacturer's instructions and procedures at 15 μg/ml. Unreacted moieties on the biosensor surface were blocked with ethanolamine. Modified carboxymethyl dextran surface in flowcells 2, 3 and 4 were used as a reaction surface. Modified carboxymethyl dextran in flow cell 1 was used as the reference surface. Biaevaluation T100 software version 2.0.2, GE Healthcare Life Sciences was used to simultaneously fit association and dissociation phases of all injections (using 1:1 fit analysis with local Rmax). Purified antibodies were diluted in running buffer for capture across goat anti-mouse or anti-human IgG specific reaction surfaces. Antibodies to be captured as a ligand (1 μg/ml) were injected over reaction matrices at a flow rate of 10 μl/minute. The association and dissociation rate constants, kon (unit M-1 s-1) and koff (unit s-1) were determined under a continuous flow rate of 50 μl/minute. […] At the end of each cycle the surfaces were regenerated with 10 s injection of 50 mM NaOH or/and by 10 s injection of 10 mM Glycine pH1.5 at a flow rate of 100 μl/min. Instrument appropriate Biaevaluation software, GE Healthcare Life Sciences was used to simultaneously fit association and dissociation constants as well as KD (using 1:1 global fit analysis with local Rₘₐₓ). Binding was recorded as a function of time and kinetic rate constants are calculated. In this assay, on-rates as fast as 10⁷ M⁻¹ s⁻¹ and off-rates as slow as 10⁻⁶ s⁻¹ can be measured.

[2] = biological target: T2, recombinant rat sclerostin
[3] = biological target: T3, recombinant mouse sclerostin
[4] = biological target: T4, recombinant cynomolgus monkey sclerostin (cynomolgus monkey)
T4 construct: also called cyno sclerostin; Cyno sclerostin
Experimental: as §1

Row | Binder | Kd [1] [pM] | koff [1] [s⁻¹] | kon [1] [M⁻¹ s⁻¹] | binding result [2] | binding result [3] | Kd [4] [pM] | koff [4] [s⁻¹] | kon [4] [M⁻¹ s⁻¹]
1 | MSL10-AM9 (antibody, V domains shown) VH: EVQLVESGGGLVQPGRSLRLSCAASGFTFDDYALHWVRQAPGKGLEWVSGIGWDDDMIDYADSVKGRFTISRDNAKNSLYLQMNSLRVEDTALYYCAGNNRGYGGLDVWGQGTTVTVSS VL: not shown | 54 | 5.2e-06 | 96000 | no binding | no binding |  |  | 
2 | MSL10-AM3 (antibody, V domains shown) VH: EVQLVESGGGLVQPGRSLRLSCAASGFTFDDYALHWVRQAPGKGLEWVSGIGWDEDMIDYADSVKGRFTISRDNAKNSLYLQMNSLRVEDTALYYCAGNNRGYGGLDVWGQGTTVTVSS VL: not shown | 900 | 7.6e-05 | 84000 | no binding | no binding | 1300 | 0.0001 | 77000
3 | MSL10-AM2.2 (antibody, V domains shown) VH: EVQLVESGGGLVQPGRSLRLSCAASGFTFDDYALHWVRQAPGKGLEWVSGIGWEDDMIDYADSVKGRFTISRDNAKNSLYLQMNSLRVEDTALYYCAGNSRGYGGLDVWGQGTTVTVSS VL: not shown | 330 | 0.00011 | 340000 | no binding | no binding | 110 | 6.7e-05 | 600000
4 | MSL10-AM5 (antibody, V domains shown) VH: EVQLVESGGGLVQPGRSLRLSCAASGFTFDDYALHWVRQAPGKGLEWVSGISWHGDFIDYADSVKGRFTISRDNAKNSLYLQMNSLRVEDTALYYCAGNNRGYGGLDVWGQGTTVTVSS VL: not shown | 970 | 7.4e-05 | 77000 | no binding | no binding | 1100 | 8.7e-05 | 82000
5 | MSL10-AM3.2 (antibody, V domains shown) VH: EVQLVESGGGLVQPGRSLRLSCAASGFTFDDYALHWVRQAPGKGLEWVSGIGWDEDMIDYADSVKGRFTISRDNAKNSLYLQMNSLRVEDTALYYCAGNNRGYGGLDVWGQGTTVTVSS VL: not shown | 900 | 0.00025 | 280000 | no binding | no binding | 360 | 0.0001 | 300000
6 | MSL10-AM4 (antibody, V domains shown) VH: EVQLVESGGGLVQPGRSLRLSCAASGFTFEDYALHWVRQAPGKGLEWVSGIGWDDDMIDYADSVKGRFTISRDNAKNSLYLQMNSLRVEDTALYYCAGNNRGYGGLDVWGQGTTVTVSS VL: not shown | 5300 | 0.00073 | 140000 | no binding | no binding | 5600 | 0.00073 | 130000
7 | MSL10-AM11 (antibody, V domains shown) VH: EVQLVESGGGLVQPGRSLRLSCAASGFTFDDYALHWVRQAPGKGLEWVSGISWHGDFIDYADSVKGRFTISRDNAKNSLYLQMNSLRVEDTALYYCAGNNRGYGGLDVWGQGTTVTVSS VL: not shown | 850 | 7.4e-05 | 88000 | no binding | no binding |  |  | 
8 | MSL10-AM6 (antibody, V domains shown) VH: EVQLVESGGGLVQPGRSLRLSCAASGFTFDQYALHWVRQAPGKGLEWVSGINWDGDYIDYADSVKGRFTISRDNAKNSLYLQMNSLRVEDTALYYCAGNIRGYGGLDVWGQGTTVTVSS VL: not shown | 3400 | 0.00055 | 170000 | no binding | no binding |  |  | 

The remaining lines, values ahead:

Row | Kd [1] [pM] | koff [1] [s⁻¹] | kon [1] [M⁻¹ s⁻¹] | binding result [2] | binding result [3] | Kd [4] [pM] | koff [4] [s⁻¹] | kon [4] [M⁻¹ s⁻¹] | Binder
9 | 300 | 1.6e-05 | 52000 | no binding | no binding | 420 | 2.3e-05 | 54000 | MSL10-AM1 (antibody, V domains shown) VH: EVQLVESGGGLVQPGRSLRLSCAASGFTFDDYALHWVRQAPGKGLEWVSGINWEGDDIDYADSVKGRFTISRDNAKNSLYLQMNSLRVEDTALYYCAGNSRGYGGLDVWGQGTTVTVSS VL: not shown
10 | 65 | 7.6e-06 | 120000 | no binding | no binding | 770 | 8.8e-05 | 110000 | MSL10-AM2 (antibody, V domains shown) VH: EVQLVESGGGLVQPGRSLRLSCAASGFTFDDYALHWVRQAPGKGLEWVSGIGWEDDMIDYADSVKGRFTISRDNAKNSLYLQMNSLRVEDTALYYCAGNSRGYGGLDVWGQGTTVTVSS VL: not shown
11 | 290 | 3.9e-05 | 130000 | no binding | no binding |  |  |  | MSL10-AM10 (antibody, V domains shown) VH: EVQLVESGGGLVQPGRSLRLSCAASGFTFSDYALHWVRQAPGKGLEWVSGISWYGDDIDYADSVKGRFTISRDNAKNSLYLQMNSLRVEDTALYYCAGNIRGYGGLDVWGQGTTVTVSS VL: not shown
12 | 420 | 7.2e-05 | 170000 | no binding | no binding |  |  |  | MSL10-AM7 (antibody, V domains shown) VH: EVQLVESGGGLVQPGRSLRLSCAASGFTFEDYALHWVRQAPGKGLEWVSGIGWNDDEIDYADSVKGRFTISRDNSKNSLYLQMNSLRVEDTALYYCAGNNRGYGGLDVWGQGTTVTVSS VL: not shown
13 | 730 | 7.7e-05 | 110000 | no binding | no binding |  |  |  | MSL10-AM8 (antibody, V domains shown) VH: EVQLVESGGGLVQPGRSLRLSCAASGFTFEDYALHWVRQAPGKGLEWVSGIGWDRDFIDYADSVKGRFTISRDNAKNSLYLQMNSLRVEDTALYYCAGNKIGYGGLDVWGQGTTVTVSS VL: not shown
